In patent US20250043001A1 (published 2025):

Molecular target: human CD28 (human, UniProt P10747 19-152)
Assay: -; scFv VHVL

B1: 1A7_H1.14_L1 (antibody, V domains shown)
VH: EVQLLESGGGLVQPGGSLRLSCAASGFTFSSYYMSWVRQAPGKGLEWVSTISESGDSTYYADSVKGRFTISRDNSKNTLYLQMNSLRAEDTAVYYCAKSGPGLRQVGFDYWGQGTLVTVSS
VL: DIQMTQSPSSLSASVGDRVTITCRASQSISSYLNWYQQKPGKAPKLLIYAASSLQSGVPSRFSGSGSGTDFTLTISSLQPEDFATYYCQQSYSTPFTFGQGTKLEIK
**Q.** How did the Kd turn out when B1 was run?
**A.** 230 nM
